Patent publication US20230250154A1 (CYTONICS, published 2023)

T1: Cathepsin G (UniProt P08311 21-244)
T1 sequence (looked up): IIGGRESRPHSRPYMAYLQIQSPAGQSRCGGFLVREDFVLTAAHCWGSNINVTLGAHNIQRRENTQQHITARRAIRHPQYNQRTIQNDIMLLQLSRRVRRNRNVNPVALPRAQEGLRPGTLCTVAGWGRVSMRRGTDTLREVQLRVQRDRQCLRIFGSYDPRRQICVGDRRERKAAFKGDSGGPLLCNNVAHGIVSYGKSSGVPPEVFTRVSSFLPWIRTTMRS

T2: MMP2 (human, UniProt P08253 110-660, limits assumed)
T2 sequence (looked up): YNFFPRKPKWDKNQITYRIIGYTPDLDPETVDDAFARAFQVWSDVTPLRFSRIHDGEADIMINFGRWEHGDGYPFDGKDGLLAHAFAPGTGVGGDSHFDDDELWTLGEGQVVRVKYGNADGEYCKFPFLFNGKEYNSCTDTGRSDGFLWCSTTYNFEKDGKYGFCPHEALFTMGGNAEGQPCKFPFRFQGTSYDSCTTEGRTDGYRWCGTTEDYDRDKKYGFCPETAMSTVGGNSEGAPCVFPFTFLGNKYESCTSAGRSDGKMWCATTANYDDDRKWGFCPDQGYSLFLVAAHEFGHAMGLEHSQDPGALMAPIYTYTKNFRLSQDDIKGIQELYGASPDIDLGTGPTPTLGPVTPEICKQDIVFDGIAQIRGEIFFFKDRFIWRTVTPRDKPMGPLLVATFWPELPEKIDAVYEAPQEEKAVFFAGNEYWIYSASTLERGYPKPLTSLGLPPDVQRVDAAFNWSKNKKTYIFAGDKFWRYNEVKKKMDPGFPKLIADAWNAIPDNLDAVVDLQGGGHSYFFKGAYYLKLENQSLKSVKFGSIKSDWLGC

T3: MMP1 (human, UniProt P03956 100-469, limits assumed)
T3 sequence (looked up): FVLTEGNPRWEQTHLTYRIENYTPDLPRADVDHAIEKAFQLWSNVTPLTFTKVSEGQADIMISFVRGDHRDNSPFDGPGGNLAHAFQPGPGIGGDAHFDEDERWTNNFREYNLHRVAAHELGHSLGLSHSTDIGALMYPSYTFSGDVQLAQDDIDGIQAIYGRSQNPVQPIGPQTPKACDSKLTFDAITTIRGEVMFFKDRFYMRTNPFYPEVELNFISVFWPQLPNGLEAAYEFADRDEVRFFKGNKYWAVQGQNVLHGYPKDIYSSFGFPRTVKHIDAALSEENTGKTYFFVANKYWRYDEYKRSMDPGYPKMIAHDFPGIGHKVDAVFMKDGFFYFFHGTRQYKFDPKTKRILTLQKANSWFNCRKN

T4: ADAMTS4 (human, UniProt O75173 213-685, limits assumed)
T4 sequence (looked up): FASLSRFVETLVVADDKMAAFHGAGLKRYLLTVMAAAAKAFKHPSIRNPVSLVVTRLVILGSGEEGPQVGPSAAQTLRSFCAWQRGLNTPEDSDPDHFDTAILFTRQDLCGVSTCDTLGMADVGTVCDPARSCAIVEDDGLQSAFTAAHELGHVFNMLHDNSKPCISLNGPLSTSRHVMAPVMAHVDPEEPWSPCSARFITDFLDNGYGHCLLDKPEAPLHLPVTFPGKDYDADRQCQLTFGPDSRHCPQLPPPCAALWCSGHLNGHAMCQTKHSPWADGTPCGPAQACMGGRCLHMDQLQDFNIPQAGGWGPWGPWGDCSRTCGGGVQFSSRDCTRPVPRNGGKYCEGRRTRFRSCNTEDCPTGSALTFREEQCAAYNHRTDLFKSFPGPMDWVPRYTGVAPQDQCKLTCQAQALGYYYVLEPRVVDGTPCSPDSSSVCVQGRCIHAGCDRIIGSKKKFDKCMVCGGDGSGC

T5: ADAMTS5 (human, UniProt Q9UNA0 262-622, limits assumed)
T5 sequence (looked up): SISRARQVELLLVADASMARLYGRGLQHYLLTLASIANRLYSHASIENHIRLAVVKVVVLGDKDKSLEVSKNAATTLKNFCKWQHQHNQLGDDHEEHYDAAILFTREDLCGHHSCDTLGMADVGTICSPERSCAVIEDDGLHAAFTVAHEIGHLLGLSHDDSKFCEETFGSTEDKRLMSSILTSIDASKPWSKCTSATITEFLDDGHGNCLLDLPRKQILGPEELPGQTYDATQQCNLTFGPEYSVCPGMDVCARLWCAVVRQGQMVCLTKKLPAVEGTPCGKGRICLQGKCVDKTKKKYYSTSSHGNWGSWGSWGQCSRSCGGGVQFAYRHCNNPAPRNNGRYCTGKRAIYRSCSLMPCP


Experiments:
Assay in all cases: cell-based or functional assay
Cathepsin G = target: T1, Cathepsin G
Elastase = target: Elastase
MMP2 = target: T2, MMP2
MMP8 = MMP8 (human, UniProt P22894 101-467, limits assumed)
Chain of MMP8 (P22894 101-467 limits assumed): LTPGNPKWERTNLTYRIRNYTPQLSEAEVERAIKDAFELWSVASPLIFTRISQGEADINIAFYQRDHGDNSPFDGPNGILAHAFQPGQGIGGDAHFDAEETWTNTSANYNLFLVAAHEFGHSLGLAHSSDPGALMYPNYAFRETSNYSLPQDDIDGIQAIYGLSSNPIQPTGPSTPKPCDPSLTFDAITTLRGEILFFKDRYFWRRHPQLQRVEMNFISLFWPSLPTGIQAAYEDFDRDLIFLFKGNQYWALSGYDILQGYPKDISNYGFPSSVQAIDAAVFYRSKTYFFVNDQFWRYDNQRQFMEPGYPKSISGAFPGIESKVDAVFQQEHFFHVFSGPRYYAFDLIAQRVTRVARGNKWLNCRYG

MMP9 = MMP9 (human, UniProt P14780 107-707, limits assumed)
Chain of MMP9 (P14780 107-707 limits assumed): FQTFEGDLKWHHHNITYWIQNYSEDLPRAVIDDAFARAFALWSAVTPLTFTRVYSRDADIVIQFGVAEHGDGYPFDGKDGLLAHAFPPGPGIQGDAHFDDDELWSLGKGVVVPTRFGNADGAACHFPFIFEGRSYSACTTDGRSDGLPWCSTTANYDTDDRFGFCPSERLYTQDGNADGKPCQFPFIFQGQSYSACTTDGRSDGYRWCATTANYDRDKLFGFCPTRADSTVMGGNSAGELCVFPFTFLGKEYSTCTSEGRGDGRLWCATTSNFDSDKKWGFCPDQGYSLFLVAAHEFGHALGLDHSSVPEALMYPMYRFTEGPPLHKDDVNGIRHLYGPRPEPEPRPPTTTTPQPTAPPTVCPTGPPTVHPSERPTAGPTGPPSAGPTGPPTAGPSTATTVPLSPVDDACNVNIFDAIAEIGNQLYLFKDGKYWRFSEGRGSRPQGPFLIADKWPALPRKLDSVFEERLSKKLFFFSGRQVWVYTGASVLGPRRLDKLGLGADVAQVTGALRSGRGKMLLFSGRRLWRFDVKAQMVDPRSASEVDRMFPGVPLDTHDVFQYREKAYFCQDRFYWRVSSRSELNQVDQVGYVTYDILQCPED

MMP1 = target: T3, MMP1
MMP12 = MMP12 (human, UniProt P39900 106-470, limits assumed)
Chain of MMP12 (P39900 106-470 limits assumed): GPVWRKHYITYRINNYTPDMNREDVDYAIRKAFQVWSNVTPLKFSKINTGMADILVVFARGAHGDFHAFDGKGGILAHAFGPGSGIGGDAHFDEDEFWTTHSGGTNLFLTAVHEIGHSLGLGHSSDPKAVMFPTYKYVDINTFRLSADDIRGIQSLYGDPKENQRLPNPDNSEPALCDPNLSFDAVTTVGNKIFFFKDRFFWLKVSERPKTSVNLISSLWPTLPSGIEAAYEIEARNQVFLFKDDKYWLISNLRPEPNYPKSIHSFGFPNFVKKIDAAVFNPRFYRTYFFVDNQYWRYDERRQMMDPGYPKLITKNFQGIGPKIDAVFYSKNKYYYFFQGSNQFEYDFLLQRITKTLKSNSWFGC

ADAMTS4 = target: T4, ADAMTS4
ADAMTS5 = target: T5, ADAMTS5
MMP3 = MMP3 (human, UniProt P08254 100-477, limits assumed)
Chain of MMP3 (P08254 100-477 limits assumed): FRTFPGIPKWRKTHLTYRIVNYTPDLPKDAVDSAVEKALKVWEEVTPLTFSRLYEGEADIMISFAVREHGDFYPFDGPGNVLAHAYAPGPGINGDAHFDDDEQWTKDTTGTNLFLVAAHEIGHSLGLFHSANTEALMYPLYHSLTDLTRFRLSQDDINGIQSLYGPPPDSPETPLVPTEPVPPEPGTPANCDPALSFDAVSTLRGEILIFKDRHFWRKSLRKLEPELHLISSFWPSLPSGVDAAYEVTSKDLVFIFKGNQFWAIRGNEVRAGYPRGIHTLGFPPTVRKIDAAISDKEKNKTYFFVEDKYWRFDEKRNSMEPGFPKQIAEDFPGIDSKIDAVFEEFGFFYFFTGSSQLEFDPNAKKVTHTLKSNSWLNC

MMP13 = MMP13 (human, UniProt P45452 104-471, limits assumed)

| Binder | Protease Inhibition (% of WT) (Cathepsin G) | Protease Inhibition (% of WT) (Elastase) | Protease Inhibition (% of WT) (MMP2) | Protease Inhibition (% of WT) (MMP8) | Protease Inhibition (% of WT) (MMP9) | Protease Inhibition (% of WT) (MMP1) | Protease Inhibition (% of WT) (MMP12) | Protease Inhibition (% of WT) (ADAMTS4) | Protease Inhibition (% of WT) (ADAMTS5) | Protease Inhibition (% of WT) (MMP3) | Protease Inhibition (% of WT) (MMP13) |
| --- | --- | --- | --- | --- | --- | --- | --- | --- | --- | --- | --- |
| Variant A2M, bait region SEQ ID NO 125 (other) SVSGKPQYMVLVPSLLHTETTEKGCVLLSYLNETVTVSASLESVRGNRSLFTDLEAENDVLHCVAFAVPKSSSNEEVMFLTVQVKGPTQEFKKRTTVMVKNEDSLVFVQTDKSIYKPGQTVKFRVVSMDENFHPLNELIPLVYIQDPKGNRIAQWQSFQLEGGLKQFSFPLSSEPFQGSYKVVVQKKSGGRTEHPFTVEEFVLPKFEVQVTVPKIITILEEEMNVSVCGLYTYGKPVPGHVTVSICRKYSDASDCHGEDSQAFCEKFSGQLNSHGCFYQQVKTKVFQLKRKEYEMKLHTEAQIQEEGTVVELTGRQSSEITRTITKLSFVKVDSHFRQGIPFFGQVRLVDGKGVPIPNKVIFIRGNEANYYSNATTDEHGLVQFSINTTNVMGTSLTVRVNYKDRSPCYGYQWVSEEHEEAHHTAYLVFSPSKSFVHLEPMSHELPCGHTQTVQAHYILNGGTLLGLKKLSFYYLIMAKGGIVRTGTHGLLVKQEDMKGHFSISIPVKSDIAPVARLLIYAVLPTGDVIGDSAKYDVENCLANKVDLSFSPSQSLPASHAHLRVTAAPQSVCALRAVDQSVLLMKPDAELSASSVYNLLPEKDLTGFPGPLNDQDDEDCINRHNVYINGITYTPVSSTNEKDMYSFLEDMGLKAFTNSKIRKPKMCPQLEQYEMHGPSELEGRGSIPENFFGVEAIPMSIPTSEDLVVQIVEEPHTKLRKYFPETWIWDLVVVNSAGVAEVGVTVPDTITEWKAGAFCLSEDAGLGISSTASLRAFQPFFVELTMPYSVIRGEAFTLKATVLNYLPKCIRVSVQLEASPAFLAVPVEKEQAPHCICANGRQTVSWAVTPKSLGNVNFTVSAEALESQELCGTEVPSVPEHGRKDTVIKPLLVEPEGLEKETTFNSLLCPSGGEVSEELSLKLPPNVVEESARASVSVLGDILGSAMQNTQNLLQMPYGCGEQNMVLFAPNIYVLDYLNETQQLTPEIKSKAIGYLNTGYQRQLNYKHYDGSYSTFGERYGRNQGNTWLTAFVLKTFAQARAYIFIDEAHITQALIWLSQRQKDNGCFRSSGSLLNNAIKGGVEDEVTLSAYITIALLEIPLTVTHPVVRNALFCLESAWKTAQEGDHGSHVYTKALLAYAFALAGNQDKRKEVLKSLNEEAVKKDNSVHWERPQKPKAPVGHFYEPQAPSAEVEMTSYVLLAYLTAQPAPTSEDLTSATNIVKWITKQQNAQGGFSSTQDTVVALHALSKYGAATFTRTGKAAQVTIQSSGTFSSKFQVDNNNRLLLQQVSLPELPGEYSMKVTGEGCVYLQTSLKYNILPEKEEFPFALGVQTLPQTCDEPKAHTSFQISLSVSYTGSRSASNMAIVDVKMVSGFIPLKPTVKMLERSNHVSRTEVSSNHVLIYLDKVSNQTLSLFFTVLQDVPVRDLKPAIVKVYDYYETDEFAIAEYNAPCSKDLGNADYKDDDDKGASHHHHHH | 250 % of WT | 75 % of WT | 20 % of WT | 300 % of WT | 300 % of WT | 200 % of WT | 300 % of WT |  |  |  |  |
| Variant A2M, bait region SEQ ID NO 100 (other) SVSGKPQYMVLVPSLLHTETTEKGCVLLSYLNETVTVSASLESVRGNRSLFTDLEAENDVLHCVAFAVPKSSSNEEVMFLTVQVKGPTQEFKKRTTVMVKNEDSLVFVQTDKSIYKPGQTVKFRVVSMDENFHPLNELIPLVYIQDPKGNRIAQWQSFQLEGGLKQFSFPLSSEPFQGSYKVVVQKKSGGRTEHPFTVEEFVLPKFEVQVTVPKIITILEEEMNVSVCGLYTYGKPVPGHVTVSICRKYSDASDCHGEDSQAFCEKFSGQLNSHGCFYQQVKTKVFQLKRKEYEMKLHTEAQIQEEGTVVELTGRQSSEITRTITKLSFVKVDSHFRQGIPFFGQVRLVDGKGVPIPNKVIFIRGNEANYYSNATTDEHGLVQFSINTTNVMGTSLTVRVNYKDRSPCYGYQWVSEEHEEAHHTAYLVFSPSKSFVHLEPMSHELPCGHTQTVQAHYILNGGTLLGLKKLSFYYLIMAKGGIVRTGTHGLLVKQEDMKGHFSISIPVKSDIAPVARLLIYAVLPTGDVIGDSAKYDVENCLANKVDLSFSPSQSLPASHAHLRVTAAPQSVCALRAVDQSVLLMKPDAELSASSVYNLLPEKDLTGFPGPLNDQDDEDCINRHNVYINGITYTPVSSTNEKDMYSFLEDMGLKAFTNSKIRKPKMCPQLEQYEMHGPEGLRVGGEPEGAKGFYESDVMGRGHARLVHVEEPHTKLLRKYFPETWIWDLVVVNSAGVAEVGVTVPDTITEWKAGAFCLSEDAGLGISSTASLRAFQPFFVELTMPYSVIRGEAFTLKATVLNYLPKCIRVSVQLEASPAFLAVPVEKEQAPHCICANGRQTVSWAVTPKSLGNVNFTVSAEALESQELCGTEVPSVPEHGRKDTVIKPLLVEPEGLEKETTFNSLLCPSGGEVSEELSLKLPPNVVEESARASVSVLGDILGSAMQNTQNLLQMPYGCGEQNMVLFAPNIYVLDYLNETQQLTPEIKSKAIGYLNTGYQRQLNYKHYDGSYSTFGERYGRNQGNTWLTAFVLKTFAQARAYIFIDEAHITQALIWLSQRQKDNGCFRSSGSLLNNAIKGGVEDEVTLSAYITIALLEIPLTVTHPVVRNALFCLESAWKTAQEGDHGSHVYTKALLAYAFALAGNQDKRKEVLKSLNEEAVKKDNSVHWERPQKPKAPVGHFYEPQAPSAEVEMTSYVLLAYLTAQPAPTSEDLTSATNIVKWITKQQNAQGGFSSTQDTVVALHALSKYGAATFTRTGKAAQVTIQSSGTFSSKFQVDNNNRLLLQQVSLPELPGEYSMKVTGEGCVYLQTSLKYNILPEKEEFPFALGVQTLPQTCDEPKAHTSFQISLSVSYTGSRSASNMAIVDVKMVSGFIPLKPTVKMLERSNHVSRTEVSSNHVLIYLDKVSNQTLSLFFTVLQDVPVRDLKPAIVKVYDYYETDEFAIAEYNAPCSKDLGNADYKDDDDKGASHHHHHH |  |  | 110 % of WT | 20 % of WT | 50 % of WT | 40 % of WT |  | 50 % of WT | 400 % of WT | 50 % of WT | 210 % of WT |
